One assay concerns the target T1, mouse EGFR antigen (mouse, UniProt Q01279 25-647, limits assumed).
T1 construct: In-house antigen coated for ELISA; also called mouse antigen; murine EGFR
Nature of the assay: ELISA, coated mu EGFR. The method, then: (§1) Antibody-antigen binding was measured by ELISA with coated antigens. Human antigens were obtained from Sino Biologicals. All other antigens were produced in-house by transient expression in CHO or HEK293 cells. Chimeric and humanized antibodies, as well as an isotype control antibody, were incubated with the coated antigens at different concentrations. After wash, bound antibodies were detected by HRP-(horse radish peroxidase)-conjugated secondary antibodies.
(An ELISA detects its analyte on a solid surface through an enzyme-linked reagent.)

Assay [1] addresses T2, human HER3 antigen (Sino Biologicals) (human, UniProt P21860 20-643).
T2 construct: Bought soluble antigen; also called human antigen
Briefly: ELISA, coated hu HER3. How it is done:
as §1

A further assay addresses T3, human HER4 antigen (human, UniProt Q15303 26-649, limits assumed).
T3 construct: Antigen coated for ELISA
T3 sequence (looked up): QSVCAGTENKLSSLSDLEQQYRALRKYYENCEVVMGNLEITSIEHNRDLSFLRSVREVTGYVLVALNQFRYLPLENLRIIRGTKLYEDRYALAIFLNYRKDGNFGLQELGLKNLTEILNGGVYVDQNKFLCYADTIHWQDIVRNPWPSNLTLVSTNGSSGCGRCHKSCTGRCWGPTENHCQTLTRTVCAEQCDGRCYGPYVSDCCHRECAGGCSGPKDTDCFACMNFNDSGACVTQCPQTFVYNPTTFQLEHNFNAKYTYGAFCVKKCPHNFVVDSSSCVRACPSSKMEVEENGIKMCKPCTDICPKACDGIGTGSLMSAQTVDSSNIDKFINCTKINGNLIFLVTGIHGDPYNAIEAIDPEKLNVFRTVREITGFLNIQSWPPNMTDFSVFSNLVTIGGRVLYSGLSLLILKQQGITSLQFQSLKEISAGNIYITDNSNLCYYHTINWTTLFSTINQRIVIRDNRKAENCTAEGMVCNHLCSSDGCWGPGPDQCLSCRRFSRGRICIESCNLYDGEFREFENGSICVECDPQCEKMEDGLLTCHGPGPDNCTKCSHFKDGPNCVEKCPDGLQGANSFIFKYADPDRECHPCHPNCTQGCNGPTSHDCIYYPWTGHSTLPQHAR
Nature of the assay: ELISA, coated hu HER4. How it is done: as §1

Another assay addresses T4, murine HER4 antigen (mouse, UniProt Q61527 26-652, limits assumed).
T4 construct: In-house antigen coated for ELISA; also called mouse HER4
T4 sequence (looked up): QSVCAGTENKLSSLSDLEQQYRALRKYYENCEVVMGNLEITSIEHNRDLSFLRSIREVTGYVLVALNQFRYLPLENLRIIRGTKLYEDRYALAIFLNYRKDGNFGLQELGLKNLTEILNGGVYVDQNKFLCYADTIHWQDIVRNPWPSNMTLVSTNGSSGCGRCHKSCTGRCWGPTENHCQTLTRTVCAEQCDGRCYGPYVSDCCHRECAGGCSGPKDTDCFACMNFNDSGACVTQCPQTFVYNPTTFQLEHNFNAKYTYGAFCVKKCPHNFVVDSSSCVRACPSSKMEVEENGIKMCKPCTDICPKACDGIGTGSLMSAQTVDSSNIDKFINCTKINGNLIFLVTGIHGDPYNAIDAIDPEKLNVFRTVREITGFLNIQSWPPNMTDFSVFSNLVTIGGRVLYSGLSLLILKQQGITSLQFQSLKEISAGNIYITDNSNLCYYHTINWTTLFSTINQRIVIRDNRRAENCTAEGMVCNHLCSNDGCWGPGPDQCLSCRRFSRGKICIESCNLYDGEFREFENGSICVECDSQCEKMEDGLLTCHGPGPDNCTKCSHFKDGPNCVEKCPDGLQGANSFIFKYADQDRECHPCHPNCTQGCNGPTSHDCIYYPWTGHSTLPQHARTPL
Nature of the assay: ELISA, coated mu HER4. The method, then:
as §1

For the next assay, the target named is T5, mouse HER3 antigen (mouse, UniProt Q61526 20-641, limits assumed).
T5 construct: In-house antigen coated for ELISA; also called mouse antigen; murine HER3
Nature of the assay: ELISA, coated mu HER3. How it is done: as §1

The target in the next assay is T6, cynomolgus EGFR antigen (cynomolgus monkey, UniProt A0A2K5WK39 25-645).
T6 construct: In-house antigen; also called cynomolgus antigen
Nature of the assay: SPR (ProteOn XPR36), IgG captured by anti-human Fc, soluble monovalent antigen, 1:1 fit. How it is done: Kinetic binding analysis of the purified humanized variants was performed on a ProteOn™ XPR36 biosensor (BioRad, USA) employing an IgG capture assay as described by Canziani et al. (Anal. Biochem. (2004) 325:301-307) that allows for measurement of antibody affinities of whole IgG molecules against soluble antigen under monovalent conditions. Briefly, approximately 5000 resonance units (RU) of a monoclonal mouse anti-human IgG Fc antibody (GE Healthcare, Denmark) was conjugated to a GLC chip surface (BioRad, USA) according to the manufacturer's instructions, followed by capture of individual antibodies of the invention or a negative control on the anti-Fc sensor surface. […] Next, 250 μl monovalent antigen (Sino Biologicals) was injected at a flow rate of 50 μl/min in serial threefold dilutions from 100 nM stock to generate response curves. The chip surface was regenerated between cycles by stripping the captured antibody/antigen complexes off the surface with a 10-second injection of 3 M MgCl₂ (GE Healthcare, Denmark) repeated three times. Finally, binding responses were fitted to a Langmuir 1:1 binding model for calculation of the on-rate (kon or ka), off-rate (koff or kd) and affinity (KD) constants using double referencing.

In the next assay the target is T7, cynomolgus HER3 antigen (cynomolgus monkey, UniProt G7PIG5 20-643).
T7 construct: In-house antigen; also called cynomolgus antigen
Nature of the assay: ELISA, coated cy HER3. The method, then:
as §1

Assay [2] has as its target T8, human HER2 antigen (Sino Biologicals) (human, UniProt P04626 23-652).
T8 construct: Bought soluble antigen; also called human antigen
Nature of the assay: ELISA, coated hu HER2. How it is done: as §1

Another assay addresses T9, mouse HER2 antigen (mouse, UniProt P70424 23-653, limits assumed).
T9 construct: In-house antigen coated for ELISA; also called mouse antigen; murine HER2
Nature of the assay: ELISA, coated mu HER2. The method, then: as §1

T5 sequence (Q61526 20-641 limits assumed): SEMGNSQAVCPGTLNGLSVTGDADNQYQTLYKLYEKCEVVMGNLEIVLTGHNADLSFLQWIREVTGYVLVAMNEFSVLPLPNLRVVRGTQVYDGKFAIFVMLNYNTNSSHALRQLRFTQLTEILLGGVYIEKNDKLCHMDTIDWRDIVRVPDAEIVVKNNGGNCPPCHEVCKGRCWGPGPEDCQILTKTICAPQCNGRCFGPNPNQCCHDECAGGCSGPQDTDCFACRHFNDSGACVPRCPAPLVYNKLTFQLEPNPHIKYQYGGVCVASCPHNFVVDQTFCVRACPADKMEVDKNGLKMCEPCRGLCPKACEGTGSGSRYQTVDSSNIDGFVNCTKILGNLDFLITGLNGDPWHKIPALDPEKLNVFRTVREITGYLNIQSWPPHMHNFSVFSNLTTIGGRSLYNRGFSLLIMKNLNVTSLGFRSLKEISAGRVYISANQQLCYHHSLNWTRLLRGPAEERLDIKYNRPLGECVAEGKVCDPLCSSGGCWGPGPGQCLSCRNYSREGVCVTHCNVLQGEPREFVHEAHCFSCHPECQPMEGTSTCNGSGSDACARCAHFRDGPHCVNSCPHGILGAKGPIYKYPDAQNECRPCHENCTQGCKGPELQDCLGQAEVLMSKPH
T7 sequence (G7PIG5 entry or part of it): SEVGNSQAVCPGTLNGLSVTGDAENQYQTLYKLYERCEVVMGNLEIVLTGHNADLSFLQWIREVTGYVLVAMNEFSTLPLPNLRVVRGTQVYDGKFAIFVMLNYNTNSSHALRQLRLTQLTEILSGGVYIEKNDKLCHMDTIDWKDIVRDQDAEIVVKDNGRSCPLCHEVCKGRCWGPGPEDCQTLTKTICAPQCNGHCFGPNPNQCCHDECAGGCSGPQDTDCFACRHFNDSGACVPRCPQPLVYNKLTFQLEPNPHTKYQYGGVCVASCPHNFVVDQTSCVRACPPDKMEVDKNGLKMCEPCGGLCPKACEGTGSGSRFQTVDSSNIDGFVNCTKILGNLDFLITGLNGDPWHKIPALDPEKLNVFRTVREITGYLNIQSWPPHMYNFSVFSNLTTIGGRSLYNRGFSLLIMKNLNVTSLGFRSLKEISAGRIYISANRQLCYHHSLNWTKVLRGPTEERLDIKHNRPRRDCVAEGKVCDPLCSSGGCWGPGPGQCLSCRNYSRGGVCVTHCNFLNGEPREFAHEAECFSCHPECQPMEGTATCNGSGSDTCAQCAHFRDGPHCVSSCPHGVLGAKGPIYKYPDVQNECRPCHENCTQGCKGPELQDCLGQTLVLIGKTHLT
T9 sequence (P70424 23-653 limits assumed): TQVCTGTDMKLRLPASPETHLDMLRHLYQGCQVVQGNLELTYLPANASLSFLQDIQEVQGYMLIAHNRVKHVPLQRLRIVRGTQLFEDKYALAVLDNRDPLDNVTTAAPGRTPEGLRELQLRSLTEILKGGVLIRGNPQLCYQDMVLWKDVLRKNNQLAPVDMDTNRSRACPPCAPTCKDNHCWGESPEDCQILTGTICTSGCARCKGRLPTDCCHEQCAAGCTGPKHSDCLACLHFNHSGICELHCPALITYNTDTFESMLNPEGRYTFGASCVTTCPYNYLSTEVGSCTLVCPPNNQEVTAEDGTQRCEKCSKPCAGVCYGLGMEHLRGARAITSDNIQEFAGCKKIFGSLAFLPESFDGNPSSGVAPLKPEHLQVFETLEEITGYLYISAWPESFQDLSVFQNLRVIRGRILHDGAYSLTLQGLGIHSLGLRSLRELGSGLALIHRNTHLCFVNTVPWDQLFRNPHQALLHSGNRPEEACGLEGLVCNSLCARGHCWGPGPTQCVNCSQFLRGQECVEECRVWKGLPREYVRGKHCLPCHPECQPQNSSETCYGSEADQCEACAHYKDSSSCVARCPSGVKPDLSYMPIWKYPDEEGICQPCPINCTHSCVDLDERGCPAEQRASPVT

B1: chimeric anti-EGFR antibody 1277 (antibody, V domains shown)
VH: EVQLVESGGGLVKPGESLKLSCAASGFAFSYSDMSWVRQTPEKRLEWVAYMSSAGDVTFYSDTVKGRFTISRDNAKNTLYLQVSSLKSEDTAIYYCVRHRDVAMDYWGQGTSVTVS
VL: DVVMTQTPLSLPVSLGDQASISCRSSQSLVHSNGNTYLHWYLQKPGQSPKLLIYKVSNRFSGVPDRFSGSGSGTDFTLKISRVEAEDLGVYFCSQSTHVPTFGGGTKLEIKR
notes: the light chain entry is full length
A word on the Kd: it is the concentration at which binding is half-saturated. The low end stands for a tighter complex, the high end for a looser complex. In the case of B1, the binding result (with mouse EGFR antigen; in [1]; with human HER4 antigen; in the assay with murine HER4 antigen; with mouse HER3 antigen; in the assay with cynomolgus HER3 antigen) was “no binding (tested: 40 nM)” in each case. The binding result (in assay [2]; in the assay with mouse HER2 antigen) was “no binding (tested: 40 nM)” in each case. The Kd with cynomolgus EGFR antigen stood at 0.59 nM.

B2: humanized anti-EGFR antibody 10292 (antibody, V domains shown)
VH: EVQLVESGGGLVQPGGSLRLSCAASGFAFSYSDMSWVRQAPGKRLEWVSYMSSAGDVTFYSDTVKGRFTISRDNAKNSLYLQVNSLRAEDTAVYYCVRHRDVAMDYWGQGTTVTVSS
VL: DIQMTQSPSSLSASVGDRATITCRSSQSLVHSNGNTYLHWYQQKPGKAPKLLIYKVSNRFSGVPSRFSGSGSGTDFTLTISSLQPEDFATYFCSQSTHVPTFGGGTKVEIK
Consider B2, for which the binding result (with mouse EGFR antigen; in [1]; with human HER4 antigen; with murine HER4 antigen; with mouse HER3 antigen; with cynomolgus HER3 antigen) was “no binding (tested: 40 nM)” each time. The binding result (in assay [2]; with mouse HER2 antigen) was “no binding (tested: 40 nM)” throughout. The molecule further registered a dissociation constant (Kd) with cynomolgus EGFR antigen of 0.35 nM.

B3: humanized anti-EGFR antibody 11294 (antibody, V domains shown)
VH: EVQLVESGGGLVQPGGSLRLSCAASGFAFSYSDMSWVRQAPGKRLEWVSYMSSAGDVTFYSDTVKGRFTISRDNAKNSLYLQVNSLRAEDTAVYYCVRHRDVAIDYWGQGTTVTVSS
VL: DVVMTQSPLSLPVTLGQPASISCRSSQSLVHSNLNTYLHWYQQRPGQSPRLLIYKVSNRFSGVPDRFSGSGSGTDFTLKISRVEAEDVGVYFCSQSTHVPTFGGGTKVEIK
In the case of B3, the binding result (with mouse EGFR antigen; in assay [1]; with human HER4 antigen; with murine HER4 antigen; with mouse HER3 antigen; with cynomolgus HER3 antigen) was “no binding (tested: 40 nM)” each time. Besides, the binding result (in [2]; with mouse HER2 antigen) was “no binding (tested: 40 nM)” throughout. This molecule also displayed a Kd in the assay with cynomolgus EGFR antigen of 0.56 nM.

B4: humanized anti-EGFR antibody 10560 (antibody, V domains shown)
VH: QVQLVQSGAEVKKPGASVKLSCKASGYTFTSYWMQWVRQAPGQGLEWIGNINPSNGGTSFNEEFKSRATMTRDTSTSTVYMELSSLRSEDTAVYYCARDGGLYDGYYFDFWGQGTLVTVSS
VL: AIQLTQSPSSLSASVGDRVTITCKASQDVDTAVAWYQQKPGKAPKLLIYWASTRHTGVPSRFSGSGSGTDFTLTVSSLQPEDFATYFCQQYSSYPLTFGGGTKVEIK
notes: also called 10550 (misprint in some paragraphs)
Regarding B4, the binding result (with mouse EGFR antigen; in [1]; in the assay with human HER4 antigen; with murine HER4 antigen; in the assay with mouse HER3 antigen; in the assay with cynomolgus HER3 antigen) was “no binding (tested: 40 nM)” each time. Further, the binding result (in assay [2]; in the assay with mouse HER2 antigen) was “no binding (tested: 40 nM)” throughout. The affinity with cynomolgus EGFR antigen, expressed as Kd, was 3.1 nM.

B5: humanized anti-EGFR antibody 11302 (antibody, V domains shown)
VH: QVQLVQSGAEVKKPGASVKLSCKASGYTFTSYWMQWVRQAPGQGLEWIGNINPSNLGTSFNEEFKSRATMTRDTSTSTVYMELSSLRSEDTAVYYCARDGGLYDGYYFDFWGQGTLVTVSS
VL: AIQLTQSPSSLSASVGDRVTITCKASQDVDTAVAWYQQKPGKAPKLLIYWASTRHTGVPSRFSGSGSGTDFTLTVSSLQPEDFATYFCQQYSSYPLTFGGGTKVEIK
On to B5, for which the binding result (with mouse EGFR antigen; in [1]; with human HER4 antigen; in the assay with murine HER4 antigen; with mouse HER3 antigen; in the assay with cynomolgus HER3 antigen) was “no binding (tested: 40 nM)” throughout. In addition, the binding result (in assay [2]; in the assay with mouse HER2 antigen) was “no binding (tested: 40 nM)” in each case. In the assay with cynomolgus EGFR antigen, this molecule came in with a Kd of 1.2 nM.

Source of the values: patent US20170165365A1 (SYMPHOGEN A S, published 2017).
